We go through 138 substances from the supplement of paper PMC12042874.

± gives the uncertainty stated by the source.

The data set in a line: amyloid nucleation score (Sup35N fusion, yeast selection) (log enrichment); library NNK1; higher = more nucleation; inactive = no reads after selection. In a few lines: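 Yeast lacking psi expressed peptides of 20 random codons fused to Sup35N, received 100 μM copper sulfate for 24 hours, and were then grown for 7 days at 30°C on medium lacking adenine and uracil. Illumina sequencing of input and output plasmid inserts provided the reads. Nucleation scores are DiMSum log enrichments of output over input, centred on the mode of non-aggregating sequences. Any sequence with under 100 input reads was excluded.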
Substance RLYIHHVIHVDKYNFGVYPP registered an amyloid nucleation score of 0.245 ± 0.32.

RMDFIHISTAIFSKEVDSRR yielded an amyloid nucleation score of 1.04 ± 0.47.

Consider RMGNLEKCKEPGVVNRWLGI, for which the amyloid nucleation score was -0.507 ± 0.52.

In turn, RMHRTDWASIHKDGRPQRRF gave an amyloid nucleation score of 1.23 ± 0.76.

On to RMMLHRGLYYNVMLNYSLI, for which the amyloid nucleation score came to 0.86 ± 0.47.

Substance RMSNDITNFSFTIVTM yielded an amyloid nucleation score of 3.86 ± 0.08.

RMYITMSQSRKVVICVMMVM showed an amyloid nucleation score of -0.164 ± 1.1.

Consider RMYWVDFAGLFIDCL, for which the amyloid nucleation score entry was “inactive”.

RNCLFVFGSLGYCSERAYKL returned an amyloid nucleation score of 6.7 ± 0.087.

For the substance RNFPWQGFYSTCMMPHF, the amyloid nucleation score was 0.986 ± 0.6.

With RNIVRFCNRSFRILLRGSAT, the amyloid nucleation score entry is “inactive”.

Consider RNLQILQDYKPSSNQCGRKE, for which the amyloid nucleation score was -0.885 ± 0.71.

The substance RNSDFHFIFWY gave an amyloid nucleation score of 0.865 ± 0.37.

Regarding RNVCIIVVSEW, the amyloid nucleation score was found to be 6.589 ± 0.056.

Turning to RNYCDPGAFGVWGVTGHHRV, the amyloid nucleation score is -0.816 ± 0.92.

On to RPEISTPFMYGYFVSGVGVA, for which the amyloid nucleation score entry is “inactive”.

Turning to RPKCWWVIGCIKRKSMSIGR, the amyloid nucleation score worked out at 2.17 ± 0.081.

As to RPPNISLSQFYDVSCAKLRC, the amyloid nucleation score was determined as 0.295 ± 0.31.

For the substance RPRSDSRGTRKDNGFDDVKL, the amyloid nucleation score amounted to 0.438 ± 0.39.

For the substance RQFIELKCLFPMADVIVF, the amyloid nucleation score is 0.315 ± 0.38.

Substance RQFSSTRFCREHRITGMQLG showed an amyloid nucleation score of 0.369 ± 0.79.

Substance RQSRVQGMYHY displayed an amyloid nucleation score of 1.28 ± 0.48.

RRATLSHAPGGPMGLEWSRW showed an amyloid nucleation score of 0.444 ± 1.2.

For the substance RRCLSIPLVCFRDKNMNMGF, the amyloid nucleation score is -0.246 ± 0.46.

Take RREVRCSQR: the amyloid nucleation score is -0.559 ± 0.61.

As for RRGEPIKKIPACGGSLCVR, the amyloid nucleation score is -0.368 ± 0.47.

Substance RRGGFG yielded an amyloid nucleation score of -0.085 ± 0.69.

Substance RRGSCLRFKV displayed an amyloid nucleation score of 0.859 ± 0.97.

Substance RRGTSFLQIYLACSHVQTSH gave an amyloid nucleation score of 4.56 ± 0.11.

RRHPS: the amyloid nucleation score entry was “inactive”.

For RRICSNCLFSGGIWNISGWV, the amyloid nucleation score was 0.509 ± 1.1.

RRSYDSLFVVVRRINTCSSP gave an amyloid nucleation score of -0.852 ± 1.1.

RRTLEAFICL came in with an amyloid nucleation score of -0.312 ± 0.84.

RSALVLVYGLTACLNGLGMC displayed an amyloid nucleation score of 3.04 ± 0.097.

Substance RSEGRRGRFNMWSLAFGDVP came in with an amyloid nucleation score of -0.218 ± 0.3.

Regarding RSESNVMS, the amyloid nucleation score was 0.397 ± 0.71.

RSFPSTFLLVLLQDSRC registered an amyloid nucleation score of 2.17 ± 0.24.

For the substance RSGTPQSERDGGGFTEVKKT, the amyloid nucleation score was -0.205 ± 0.42.

RSGVVIVVLSVYGSSQRARG gave an amyloid nucleation score of -0.108 ± 0.4.

Consider RSHSNISKSPLFVVGGAQFM, for which the amyloid nucleation score turned out to be 0.995 ± 0.56.

For the substance RSLFPFSSLDMGHRRVGGKV, the amyloid nucleation score came to 0.384 ± 0.52.

As for RSNYVDVSGLSYGGLIAL, the amyloid nucleation score entry was “inactive”.

RSRAISIKWCIGVGHPGNWV: the amyloid nucleation score entry is “inactive”.

As to RSRKK, the amyloid nucleation score came to 0.34 ± 0.21.

Regarding RSSKGFMCMEMCLGWGQSTS, the amyloid nucleation score worked out at 3.41 ± 0.095.

In turn, RSSPHSGWQPVDLKY registered an amyloid nucleation score of -1.37 ± 2.4.

For RSVGFEGMSNGWCATES, the amyloid nucleation score worked out at 0.634 ± 0.77.

On to RSVMCGWDHPRDRVGAPEWL, for which the amyloid nucleation score is 0.439 ± 0.71.

In turn, RSVMVMLPS gave an amyloid nucleation score of 0.022 ± 0.37.

In turn, RSVSRRGYVGAFPSQVWLGL returned an amyloid nucleation score of 0.214 ± 0.77.

RSWKNKFYPVCFSKSGSRF came in with an amyloid nucleation score of -0.215 ± 0.41.

For RSWPSCNCVAKANMCFARSL, the amyloid nucleation score was -0.521 ± 0.39.

Regarding RSYEDGALVVVGMRFGDRLR, the amyloid nucleation score was 0.336 ± 0.87.

RTLSWFRRKIIVLYLYYTHS returned an amyloid nucleation score of -0.272 ± 0.88.

As to RTMCRFPYGCMTRSYVSG, the amyloid nucleation score was found to be 0.159 ± 0.38.

Regarding RTMLMLMTSVLGGQGK, the amyloid nucleation score turned out to be 7.02 ± 0.079.

On to RTPFFKRICK, for which the amyloid nucleation score is -0.303 ± 0.69.

The substance RVEKCWAMTDKCIRHRFLTS came in with an amyloid nucleation score of 0.774 ± 0.48.

For the substance RVIFSGYWRAIFSLS, the amyloid nucleation score is -0.383 ± 0.66.

Substance RVIGE came in with an amyloid nucleation score of 1.36 ± 0.49.

RVLRIVEAVVVSSCGFVDLR: the amyloid nucleation score is 1.69 ± 0.25.

For RVNLFSPYAWCIQIGSHHYG, the amyloid nucleation score came out at 7.444 ± 0.047.

The substance RVPATLNLLGVRQGRD came in with an amyloid nucleation score of 0.26 ± 0.72.

Take RVRGSASMLLSLMCSFTMYE: the amyloid nucleation score was determined as 3.3 ± 0.14.

In turn, RVSGMAGFFTIKLLKRRSWA displayed an amyloid nucleation score of -0.503 ± 0.62.

As to RVSRLPFDECSFLLVTVEGI, the amyloid nucleation score is 0.311 ± 0.49.

In the case of RVSVVQFMSKVPTRLMVIEW, the amyloid nucleation score was found to be 0.705 ± 0.65.

For the substance RVTVIIFTLSRGYIIMSRNR, the amyloid nucleation score is -1.12 ± 1.1.

RVTYNSETTRCFCEVFAPYR yielded an amyloid nucleation score of -0.875 ± 2.4.

RVYYLMDLIACCPYSLGHRN gave an amyloid nucleation score of 8.606 ± 0.051.

In the case of RWCWWFFSSYAFFRSNISWV, the amyloid nucleation score was -0.197 ± 0.42.

Substance RWESKRRRRGRYGFWSVSVR gave an amyloid nucleation score of 0.129 ± 0.35.

Substance RWGGDALNAWHASDSSVGLR yielded an amyloid nucleation score of -1.01 ± 0.73.

Substance RWMSYHIVPRRGSYCVTTLT came in with an amyloid nucleation score of 0.492 ± 0.85.

RWPVFNSCLSSSPRRAEYRY returned an amyloid nucleation score of 0.616 ± 0.59.

RWRLFLRAMSLYDDVSHASA: the amyloid nucleation score turned out to be 0.287 ± 0.23.

For the substance RWSIELCVRM, the amyloid nucleation score is -0.367 ± 0.51.

Substance RWSLGGICVYVGLNEFVLMI gave an amyloid nucleation score of 2.56 ± 0.22.

For RWVYSTRNHLKIVRNNKSEL, the amyloid nucleation score is -2.15 ± 2.4.

The substance RYATSMYPL showed an amyloid nucleation score of 0.069 ± 0.56.

RYCVGLVRICLKLGVREICS returned an amyloid nucleation score of 1.01 ± 0.97.

Substance RYGRYSCSIIEGLCLMSSKW came in with an amyloid nucleation score of 0.676 ± 0.95.

Turning to RYMVGSENEIRL, the amyloid nucleation score was 0.583 ± 0.29.

RYNRLCTSLGRFKVVKSILS: the amyloid nucleation score is 0.131 ± 0.33.

In the case of RYSLFIVSYCDGHRSSTRNM, the amyloid nucleation score entry was “inactive”.

Consider RYVSVTGYDAQCRYCDKGTG, for which the amyloid nucleation score was -0.326 ± 0.44.

For RYYVSSLRPVRRQSRKDGCG, the amyloid nucleation score was -0.414 ± 0.63.

For the substance RYYYAQEWPVALFLSRPKVP, the amyloid nucleation score came out at 0.406 ± 0.63.

The substance SACQLFGVMVPEHRRALMVW returned an amyloid nucleation score of 0.018 ± 0.42.

SADKSSFKPFLESTASRVQI displayed an amyloid nucleation score of -0.62 ± 1.1.

SAELKDLRGKQLLAGGP: the amyloid nucleation score is 0.53 ± 1.1.

As to SAIMEVLRMDDTCLWSNWVM, the amyloid nucleation score was 0.057 ± 0.37.

In the case of SAMAWIPFTISPRFEFRTCN, the amyloid nucleation score amounted to 5.16 ± 0.061.

On to SASGAWSGWPHRKVGYGSSL, for which the amyloid nucleation score stood at 0.664 ± 0.36.

The substance SATASNGRMAGSVSSWRKRW had an amyloid nucleation score of 0.219 ± 0.36.

For SAVSMVR, the amyloid nucleation score was -0.594 ± 0.55.

As to SAVVTRMGGGLKLRTWHEGN, the amyloid nucleation score turned out to be 0.53 ± 0.55.

Substance SAVWEVVEGDVLMWSYMKSP returned an amyloid nucleation score of 0.019 ± 0.33.

SCAYQGKLSIAAMLVSGFGC returned an amyloid nucleation score of 1.16 ± 0.97.

On to SCDYGL, for which the amyloid nucleation score came to 0.512 ± 0.63.

Consider SCERW, for which the amyloid nucleation score was -0.111 ± 0.45.

SCKGQPARVTCETRFTGYER: the amyloid nucleation score amounted to 2.32 ± 0.49.

On to SCLPFLGYPFQDVGLIFLVA, for which the amyloid nucleation score amounted to 0.749 ± 0.51.

For SCLWSSCCVV, the amyloid nucleation score worked out at 0.171 ± 0.44.

Turning to SCMRSKWKNTWLKYRYVNCI, the amyloid nucleation score is -0.493 ± 0.62.

Turning to SCNWDRNVLDMFFLN, the amyloid nucleation score result was “inactive”.

As to SCQSALLRILGSRVSFQARA, the amyloid nucleation score is -0.192 ± 0.49.

In turn, SCRLIDWVPSHSRYRTFCCE returned an amyloid nucleation score of -0.386 ± 0.37.

SCTFKMMMGSVLL registered an amyloid nucleation score of 4.45 ± 0.067.

SCVAVSNNMILPRVSGLFEG had an amyloid nucleation score of 2.55 ± 0.15.

Regarding SCVLESIQEFWS, the amyloid nucleation score was -0.3 ± 0.24.

For SCYMHVR, the amyloid nucleation score amounted to 0.372 ± 0.52.

In turn, SDDRLATCTFCLYSRIKQVK returned an amyloid nucleation score of -0.651 ± 1.7.

SDMLK: the amyloid nucleation score was 0.324 ± 0.43.

Take SDQSPFLIGVPWFVIYNRGG: the amyloid nucleation score was found to be 1.69 ± 0.11.

In turn, SDSFLSSYHSFMRDVWV showed an amyloid nucleation score of 0.872 ± 0.58.

Turning to SDVEEGLRL, the amyloid nucleation score stood at 1.08 ± 0.57.

SDYIWWRLCGGIKCQGGELG gave an amyloid nucleation score of -1.74 ± 2.1.

For the substance SDYSLTCMGVYGEGKTRGNL, the amyloid nucleation score stood at 0.045 ± 0.32.

As to SECIVFYIPTYKHD, the amyloid nucleation score amounted to 7.909 ± 0.059.

Regarding SEFHFMRT, the amyloid nucleation score was -0.482 ± 1.7.

In the case of SEHILFLCCMMVGSVVSSAC, the amyloid nucleation score entry is “inactive”.

Consider SEKRR, for which the amyloid nucleation score was 0.075 ± 0.26.

Substance SERTMMSDKLSKRSLPCSLR came in with an amyloid nucleation score of -0.717 ± 0.63.

In turn, SESKGHHKCRRALLYRGM had an amyloid nucleation score of 0.418 ± 1.2.

SEVSISGVVYFDHREVVEV came in with an amyloid nucleation score of -0.165 ± 1.4.

Regarding SEYTLLTFKSFGNRAPHFVG, the amyloid nucleation score stood at 1.75 ± 0.19.

In the case of SFAQLMGGAVSHYVFLPWNA, the amyloid nucleation score is -0.525 ± 0.85.

Take SFDADFSFRVRVFYDQSISI: the amyloid nucleation score is -0.035 ± 0.48.

Take SFDKARRARGRSLAWML: the amyloid nucleation score came to 0.072 ± 0.54.

As for SFGANYTLILTVIIQRLADQ, the amyloid nucleation score was 6.31 ± 0.083.

In turn, SFGPIVCGFVVKRMWKCNIG showed an amyloid nucleation score of 3.63 ± 0.12.

Substance SFGTQPGQISVN gave an amyloid nucleation score of -0.856 ± 2.4.

Regarding SFIDDCP, the amyloid nucleation score entry is “inactive”.

SFIFLILMSAWFPFMRVTFG showed an amyloid nucleation score of 0.198 ± 0.64.

On to SFKPSSFKFTIT, for which the amyloid nucleation score was -0.605 ± 0.41.

SFLLKKKVPWPFFCTCMLVG gave an amyloid nucleation score of -0.575 ± 1.5.

Turning to SFNKDRKIYTRPELRFMMFL, the amyloid nucleation score was -0.707 ± 1.7.
